The supplement of paper PMC7877785
± gives the uncertainty stated by the source.

Assay: self-splicing fitness, log relative to wild type (ln ratio); higher = more splicing; Tetrahymena group I intron in knt gene, E. coli kanamycin selection, DiMSum; sequences stand for … in CUCUCU…GGAGGGAAAAGUUAUCAGGCAUGCACCUGGUAGCUAGUCUUUAAACCAAUAGAUUGCAUCGGUUUAAAAGGCAAGACCGUCAAAUUGCGGGAAAGGGGUCAACAGCCGUUCAGUACCAAGUCUCAGGGGAAACUUUGAGAUGGCCUUGCAAAGGGUAUGGUAAUAAGCUGACGGACAUGGUCCUAACCACGCAGCCAAGUCCUAAGUCAACAGAUCUUCUGUUGAUAUGGAUGCAGUUCACAGACUAAAUGUCGGUCGGGGAAGAUGUAUUCUUCUCAUAAGAUAUAGUCGGACCUCUCCUUAAUGGGAGCUAGCGGAUGAAGUGAUGCAACACUGGAGCCGCUGGGAACUAAUUUGUAUGCGAAAGUAUAUUGAUUAGUUUUGGAGUACUCGUGGUCG
How it was run: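 Six replicate transformations of E. coli BL21(DE3) with a pET-22b(+) library were grown overnight at 37°C or 30°C. The library randomised all eight P1ex-region intron nucleotides, the intron lying in the knt kanamycin-resistance gene, and plates were LB agar with or without 25 μg/mL kanamycin plus 100 μg/mL carbenicillin, 50 μM IPTG and 0.2% rhamnose. Pooled colonies were amplicon-sequenced on an Illumina HiSeq 2500, and fitness is the DiMSum error-weighted combination of wild-type-normalised replicate fold changes, kanamycin versus none.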

Row | Sequence | self-splicing fitness (ln) (30 °C) | self-splicing fitness (ln) (37 °C)
1 | CUACAGCAAUAUUACGGGGU | -3.62 ± 0.12 | -2.34 ± 0.14
2 | CUACAGCAAUAUUACGGGUC | -4.01 ± 0.23 | -2.44 ± 0.21
3 | CUACAGCAAUAUUACGGUAC | -2.81 ± 0.13 | -1.13 ± 0.18
4 | CUACAGCAAUAUUACGUACC | -3.08 ± 0.41 | -1.72 ± 0.43
5 | CUACAGCAAUAUUACGUCGA | -3.59 ± 0.22 | -3.7 ± 0.3
6 | CUACAGCAAUAUUACGUCGG | -1.98 ± 0.066 | -0.736 ± 0.079
7 | CUACAGCAAUAUUACGUGAA | -4.26 ± 0.19 | -2.08 ± 0.17
8 | CUACAGCAAUAUUACGUGGU | -3.31 ± 0.22 | -3.03 ± 0.28
9 | CUACAGCAAUAUUACGUGUG | -1.63 ± 0.055 | -0.0421 ± 0.061
10 | CUACAGCAAUAUUACGUUAA | -3.48 ± 0.21 | -2.94 ± 0.2
11 | CUACAGCAAUAUUACGUUGG | -3.51 ± 0.15 | -2.45 ± 0.14
12 | CUAGAGCAAUAUUACGAAUA | -3.49 ± 0.48 | -1.86 ± 0.34
13 | CUAGAGCAAUAUUACGAGGC | -3.08 ± 0.26 | -1.02 ± 0.23
14 | CUAGAGCAAUAUUACGAGGG | -2.12 ± 0.19 | -1.73 ± 0.33
15 | CUAGAGCAAUAUUACGAGUU | -3.23 ± 0.31 | -2.36 ± 0.3
16 | CUAGAGCAAUAUUACGAUAC | -2.63 ± 0.35 | -2.25 ± 0.34
17 | CUAGAGCAAUAUUACGAUAG | -0.96 ± 0.1 | 0.0398 ± 0.18
18 | CUAGAGCAAUAUUACGAUCA | -2.35 ± 0.45 | –
19 | CUAGAGCAAUAUUACGAUUC | -2.96 ± 0.29 | -2.75 ± 0.48
20 | CUAGAGCAAUAUUACGCAAC | -1.32 ± 0.22 | –
21 | CUAGAGCAAUAUUACGCCAA | -0.987 ± 0.2 | -2.54 ± 0.41
22 | CUAGAGCAAUAUUACGCUGU | -3.92 ± 0.37 | -2.69 ± 0.36
23 | CUAGAGCAAUAUUACGGAUA | – | -1.44 ± 0.4
24 | CUAGAGCAAUAUUACGGCCU | -2.72 ± 0.44 | -1.69 ± 0.44
25 | CUAGAGCAAUAUUACGGGCG | 0.0237 ± 0.11 | 0.638 ± 0.14
26 | CUAGAGCAAUAUUACGGGUG | 0.162 ± 0.073 | -0.643 ± 0.082

Row | Sequence | self-splicing fitness (ln) (30 °C) | self-splicing fitness (ln) (37 °C)
27 | CUAGAGCAAUAUUACGGGUU | -4.2 ± 0.29 | -2.33 ± 0.23
28 | CUAGAGCAAUAUUACGGUCU | – | -3.69 ± 0.34
29 | CUAGAGCAAUAUUACGUAUU | -3.42 ± 0.17 | -3.03 ± 0.26
30 | CUAGAGCAAUAUUACGUCCG | -0.472 ± 0.087 | -0.0677 ± 0.14
31 | CUAGAGCAAUAUUACGUCUG | 0.15 ± 0.094 | 0.417 ± 0.11
32 | CUAUAGCAAUAUUACGAACC | -2.11 ± 0.49 | –
33 | CUAUAGCAAUAUUACGACCU | -2.85 ± 0.42 | –
34 | CUAUAGCAAUAUUACGACGG | 0.143 ± 0.13 | 0.155 ± 0.15
35 | CUAUAGCAAUAUUACGACUG | 0.0686 ± 0.17 | -0.119 ± 0.17
36 | CUAUAGCAAUAUUACGAUAC | – | -2.61 ± 0.33
37 | CUAUAGCAAUAUUACGAUCA | -3.08 ± 0.33 | 0.388 ± 0.31
38 | CUAUAGCAAUAUUACGCCAG | -1.83 ± 0.18 | -0.622 ± 0.25
39 | CUAUAGCAAUAUUACGCCUU | – | -2.27 ± 0.39
40 | CUAUAGCAAUAUUACGGACG | 0.217 ± 0.093 | 0.437 ± 0.12
41 | CUAUAGCAAUAUUACGGCGU | -4.65 ± 0.46 | -2.24 ± 0.43
42 | CUAUAGCAAUAUUACGGGGA | -2.58 ± 0.17 | -2.87 ± 0.31
43 | CUAUAGCAAUAUUACGGGUA | -2.54 ± 0.19 | -2.34 ± 0.21
44 | CUAUAGCAAUAUUACGGUGG | -3.27 ± 0.24 | -2.22 ± 0.25
45 | CUAUAGCAAUAUUACGUGGU | -3.34 ± 0.23 | -2.76 ± 0.2
46 | CUAUAGCAAUAUUACGUGUC | -4.02 ± 0.24 | -3.09 ± 0.27
47 | CUAUAGCAAUAUUACGUUUA | -3.4 ± 0.36 | -1.74 ± 0.19
48 | CUCAAGCAAUAUUACGAAUC | – | -1.91 ± 0.3
49 | CUCAAGCAAUAUUACGACUA | -2.02 ± 0.31 | -2.64 ± 0.34
50 | CUCAAGCAAUAUUACGAUCG | -1.26 ± 0.1 | -0.0967 ± 0.13
51 | CUCAAGCAAUAUUACGAUGG | -1.28 ± 0.061 | 0.0609 ± 0.08
